The text below walks through data of patent US20240082346A1 (MAINLINE BIOSCIENCES SHANGHAI, published 2024).

The target of the assay is T1, Human chemokine receptor CXCR4 (human, UniProt P61073 1-352).
T1 construct: whole, on cells; Membranes of Chem-1 cells expressing human CXCR4 (0.5 ug membrane protein per aliquot); also called C-X-C chemokine receptor type 4; fusin
The assay can be described thus: displacement of [125I]SDF-1α (0.03 nM) from membranes of Chem-1 cells expressing human CXCR4. As for the experimental part: Human CXCR4/¹²⁵I-SDF-1α Binding Inhibition Assay: Human chemokine receptor CXCR4 expressed in Chem-1 cells were used in modified HEPES buffer pH 7.4. A 0.5 μg (Membrane protein may change from lot to lot, the concentration used were adjusted as necessary), aliquot was incubated with 0.03 nM [¹²⁵I]SDF-1α for 90 minutes at 25° C. Non-specific binding was estimated in the presence of 30 nM SDF-la. Membranes were filtered and washed, filters were then counted to determine [¹²⁵I]SDF-1α specifically bound. Compounds were screened starting at 10 μM with 11-point dilutions (Valenzuela-Fernandez A, et al. J Biol Chem. 277(18):15677, 2002).

Bridge positions count the residues as written; N and C are the ends. Square brackets hold non-standard residues; d marks the D form. * marks the point of attachment. 2Nal = N[C@@H](Cc1ccc2ccccc2c1)C(=O)O; Lys(iPr) = CC(C)NCCCC[C@H](N)C(=O)O; Palmitoyl = CCCCCCCCCCCCCCCC(=O)*; Lauroyl = CCCCCCCCCCCC(=O)*; hCys = N[C@@H](CCS)C(=O)O; PhAc = O=C(Cc1ccccc1)*; Bz = O=C(c1ccccc1)*; Mpa = O=C(O)CCS; iPr = CC(C)*

T1 sequence (P61073 whole entry): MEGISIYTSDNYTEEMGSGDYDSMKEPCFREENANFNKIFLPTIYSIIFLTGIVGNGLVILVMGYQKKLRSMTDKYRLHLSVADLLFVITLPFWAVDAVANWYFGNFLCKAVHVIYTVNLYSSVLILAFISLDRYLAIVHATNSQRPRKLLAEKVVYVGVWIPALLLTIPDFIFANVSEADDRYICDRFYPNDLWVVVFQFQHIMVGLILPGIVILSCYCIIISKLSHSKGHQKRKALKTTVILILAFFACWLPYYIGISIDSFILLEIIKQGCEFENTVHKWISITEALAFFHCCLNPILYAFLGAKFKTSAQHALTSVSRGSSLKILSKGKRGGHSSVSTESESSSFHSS

A word on the IC50: it is the concentration that gives 50% inhibition. Read a high IC50 as weaker potency. Regarding “[Mpa]Y[Lys(iPr)][dR][2Nal]GC[Lys(iPr)]G[2Nal]G-NH2 (disulfide 1-7)”, the Binding Kb turned out to be 0.29 nM and the concentration for half-maximal inhibition (IC50) worked out at 0.95 nM.

B1: cyclo[Mpa-Arg-Tyr-Arg-2Nal-Gly-Cys]-Arg-Gly-(D-Phe)-Gly-NH2 (peptide)
peptide: [Mpa]RYR[2Nal]GCRG[dF]G-NH2
modifications: disulfide 1-7; also: acetate salt
notes: Acetate salt; also called MLB-011
Regarding B1, the “Binding Kb” value is greater than 1000 nM.

B2: cyclo[Mpa-Tyr-Lys(iPr)-(D-Arg)-2Nal-Gly-Cys]-Arg-Gly-(D-Phe)-Gly-NH2 (peptide)
peptide: [Mpa]YK(iPr)[dR][2Nal]GCRG[dF]G-NH2
modifications: disulfide 1-7; also: acetate salt
notes: Acetate salt; also called MLB-002
Consider B2, for which the “Binding Kb” value came to 0.28 nM and the IC50 is 0.92 nM.

B3: cyclo[Mpa-Tyr-Arg-(D-Arg)-2Nal-Gly-Cys]-Arg-Gly-(D-Phe)-Gly-NH2 (peptide)
peptide: [Mpa]YR[dR][2Nal]GCRG[dF]G-NH2
modifications: disulfide 1-7; also: acetate salt
notes: Acetate salt; also called MLB-001
Take B3: the “Binding Kb” value worked out at 7.3 nM and the IC50 worked out at 24 nM.

B4: cyclo[Mpa-Tyr-Lys(iPr)-(D-Arg)-2Nal-Gly-Cys]-(D-Arg)-Gly-(D-Phe)-Gly-NH2 (peptide)
peptide: [Mpa]YK(iPr)[dR][2Nal]GC[dR]G[dF]G-NH2
modifications: disulfide 1-7; also: acetate salt
notes: also called MLB-004
Take B4: the “Binding Kb” value turned out to be 0.21 nM and the IC50 is 0.7 nM.

B5: Benzoyl-cyclo[hCys-Tyr-Lys(iPr)-(D-Arg)-2Nal-Gly-Cys]-Lys(iPr)-Gly-NH2 (peptide)
peptide: Bz-[hCys]YK(iPr)[dR][2Nal]GCK(iPr)G-NH2
modifications: disulfide 1-7; also: acetate salt
notes: Acetate salt; also called MLB-021
B5: the “Binding Kb” value is 0.13 nM and the IC50 was 0.42 nM.

B6: Ac-cyclo[hCys-Tyr-Lys(iPr)-(D-Arg)-2Nal-Gly-Cys]-Lys(iPr)-Gly-NH2 (peptide)
peptide: Ac-[hCys]YK(iPr)[dR][2Nal]GCK(iPr)G-NH2
modifications: disulfide 1-7; also: acetate salt
notes: Acetate salt; also called MLB-010
Take B6: the “Binding Kb” value was 0.17 nM and the IC50 turned out to be 0.56 nM.

B7: Phenylacetyl-cyclo[hCys-Tyr-Lys(iPr)-(D-Arg)-2Nal-Gly-Cys]-Lys(iPr)-Gly-NH2 (peptide)
peptide: PhAc-[hCys]YK(iPr)[dR][2Nal]GCK(iPr)G-NH2
modifications: disulfide 1-7; also: acetate salt
notes: also called MLB-025
Take B7: the “Binding Kb” value stood at 0.25 nM and the concentration for half-maximal inhibition (IC50) was found to be 0.84 nM.

B8: Benzoyl-cyclo[hCys-Tyr-Lys(iPr)-(D-Arg)-2Nal-Gly-Cys]-Lys(iPr)-Gly-NH(Et) (peptide)
peptide: Bz-[hCys]YK(iPr)[dR][2Nal]GCK(iPr)G-NHEt
modifications: disulfide 1-7; also: acetate salt
notes: Acetate salt; also called MLB-024
For the molecule B8, the “Binding Kb” value was 0.39 nM and the IC50 amounted to 1.3 nM.

B9: cyclo[Mpa-Tyr-Lys(iPr)-(D-Arg)-2Nal-Gly-Cys]-Lys(iPr)-Gly-NH(Et) (peptide)
peptide: [Mpa]YK(iPr)[dR][2Nal]GCK(iPr)G-NHEt
modifications: disulfide 1-7; also: acetate salt
notes: Acetate salt; also called MLB-014
Consider B9, for which the “Binding Kb” value is 0.19 nM and the IC50 was found to be 0.64 nM.

B10: Benzoyl-cyclo[Cys-Tyr-Lys(iPr)-(D-Arg)-2Nal-Gly-Cys]-Lys(iPr)-Gly-NH2 (peptide)
peptide: Bz-CYK(iPr)[dR][2Nal]GCK(iPr)G-NH2
modifications: disulfide 1-7; also: acetate salt
notes: Acetate salt; also called MLB-023
As for B10, the “Binding Kb” value came out at 1 nM and the IC50 was found to be 3.4 nM.

B11: MLB-033 (compound of Example 23; structure given only as drawing CHEM-US-00016) (peptide)
peptide: Ac-CYK(iPr)[dR][2Nal]GCK(iPr)G-NH2
modifications: linker 1-7 via 1,3‑bis(methylene)benzene; also: acetate salt
notes: Acetate salt
Take B11: the “Binding Kb” value came to 0.99 nM and the IC50 turned out to be 3.3 nM.

B12: cyclo[Mpa-Tyr-Lys(iPr)-(D-Arg)-2Nal-Gly-Cys]-Lys(iPr)-Lys(palmitoyl)-NH(Et) (peptide)
peptide: [Mpa]YK(iPr)[dR][2Nal]GCK(iPr)K(Palmitoyl)-NHEt
modifications: disulfide 1-7; also: acetate salt
notes: Acetate salt; also called MLB-029
Regarding B12, the “Binding Kb” value is 3.2 nM and the 50% inhibitory concentration (IC50) was determined as 11 nM.

B13: MLB-032 (compound of Example 22; structure given only as drawing CHEM-US-00015) (peptide)
peptide: Ac-CYK(iPr)[dR][2Nal]GCK(iPr)G-NH2
modifications: linker 1-7 via 1,2‑bis(methylene)benzene; also: acetate salt
notes: Acetate salt
On to B13, for which the “Binding Kb” value was determined as 0.12 nM and the IC50 was found to be 0.4 nM.

B14: cyclo[Mpa-Tyr-Lys(iPr)-(D-Arg)-2Nal-Gly-Cys]-Lys(iPr)-Lys(Ac)-NH(Et) (peptide)
peptide: [Mpa]YK(iPr)[dR][2Nal]GCK(iPr)K(Ac)-NHEt
modifications: disulfide 1-7; also: acetate salt
notes: Acetate salt; also called MLB-027
As to B14, the “Binding Kb” value is 0.15 nM and the IC50 is 0.48 nM.

B15: cyclo[Mpa-Tyr-Lys(iPr)-(D-Arg)-2Nal-Gly-Cys]-Lys(iPr)-Lys(lauroyl)-NH(Et) (peptide)
peptide: [Mpa]YK(iPr)[dR][2Nal]GCK(iPr)K(Lauroyl)-NHEt
modifications: disulfide 1-7; also: acetate salt
notes: Acetate salt; also called MLB-028
With B15, the “Binding Kb” value came to 2.5 nM and the 50% inhibitory concentration (IC50) was found to be 8.2 nM.

B16: Benzoyl-cyclo[Cys-Tyr-Lys(iPr)-(D-Arg)-2Nal-Gly-hCys]-Lys(iPr)-Gly-NH2 (peptide)
peptide: Bz-CYK(iPr)[dR][2Nal]G[hCys]K(iPr)G-NH2
modifications: disulfide 1-7; also: acetate salt
notes: Acetate salt; also called MLB-022
For the molecule B16, the “Binding Kb” value was 0.21 nM and the 50% inhibitory concentration (IC50) was found to be 0.71 nM.

B17: MLB-030 (compound of Example 20; structure given only as drawing CHEM-US-00013) (peptide)
peptide: Bz-CYK(iPr)[dR][2Nal]GCK(iPr)G-NH2
modifications: linker 1-7 via 1,2‑bis(methylene)benzene; also: acetate salt
notes: Acetate salt
As to B17, the “Binding Kb” value is 0.39 nM and the IC50 worked out at 1.3 nM.

B18: Ac-cyclo[hCys-Tyr-Lys(iPr)-(D-Arg)-2Nal-Gly-Cys]-Lys(iPr)-Gly-NH(Et) (peptide)
peptide: Ac-[hCys]YK(iPr)[dR][2Nal]GCK(iPr)G-NHEt
modifications: disulfide 1-7; also: acetate salt
notes: Acetate salt; also called MLB-026
In the case of B18, the “Binding Kb” value turned out to be 0.27 nM and the IC50 was 0.89 nM.
